{"source": "patent US20260209363A1", "about": "(Chugai, published 2026)", "key": {"Mouse MOG (R&D system)": {"molecular_target": "T1, Mouse MOG (R&D system) (mouse, UniProt Q61885 29-156, limits assumed)", "T1 construct": "also called mouse soluble MOG; soluble MOG", "T1 sequence (looked up)": "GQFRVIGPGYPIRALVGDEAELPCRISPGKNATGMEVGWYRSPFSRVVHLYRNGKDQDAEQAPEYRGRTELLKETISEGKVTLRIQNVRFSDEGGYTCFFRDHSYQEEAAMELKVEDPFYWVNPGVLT", "test": "plasma MOG clearance in mice after IC17 0.2 mg/kg IV and MOG 0.021 mg/kg IV"}, "[1]": {"molecular_target": "T2, MOG on mouse oligodendrocytes (mouse, UniProt Q61885 29-246)", "T2 construct": "whole, on cells; also called MOG on the cell membrane; MOG expressed by cells in the brain", "T2 sequence (looked up)": "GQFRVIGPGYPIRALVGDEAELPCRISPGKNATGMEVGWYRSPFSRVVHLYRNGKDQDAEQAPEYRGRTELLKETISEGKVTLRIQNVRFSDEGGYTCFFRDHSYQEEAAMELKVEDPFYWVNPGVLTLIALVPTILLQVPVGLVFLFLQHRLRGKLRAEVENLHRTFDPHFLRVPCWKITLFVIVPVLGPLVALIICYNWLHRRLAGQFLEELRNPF", "test": "flow cytometry on mouse brain cell suspension, O4-positive/CD45-negative oligodendrocyte fraction, 4 degrees C 60 min, detection with Alexa Fluor 647 anti-delta GK antibody; (a) MSA-free DPBS, (b) DPBS with 50 mg/mL MSA, (c) mouse plasma [a), (b), (c]", "experimental": "The binding ability of albumin switch molecules against the membrane-type antigens were examined. Specifically, the antibodies (10 micro g/mL) indicated below were incubated with mouse brain cell suspension (2×10⁵ cells/well), in mouse serum albumin (MSA)-free DPBS (Thermo Fisher Scientific), DPBS containing Recombinant MSA (Albumin Bioscience) at 50 mg/mL, or mouse plasma (6 weeks old, male C57BL/6J mouse) at 4 degrees C. for 60 minutes. The mouse brain cell suspension was prepared from mouse brain using Adult Brain Dissociation Kit (Miltenyi Biotec) and gentleMACS (Miltenyi Biotec). Antibodies used for the reaction were IC17, MOG//IC17, and ABD094(H/L)-MOG//IC17. After the reaction, the cells were washed once with DPBS. […] Lastly, the cells were suspended in DPBS and analyzed by FACSCantoII (BD). The fluorescence intensities of Alexa Fluor 647 in the MOG-expressing oligodendrocyte O4-positive/CD45-negative fractions were measured (Schroeter, C. B. et al., One Brain-All Cells: A Comprehensive Protocol to Isolate All Principal CNS-Resident Cell Types from Brain and Spinal Cord of Adult Healthy and EAE Mice. Cells 2021, 10(3), 651)."}, "human soluble IL-6R": {"molecular_target": "T3, human soluble IL-6R (human, UniProt P08887 20-357, limits assumed)", "T3 construct": "Soluble form; also called sIL6R; Human IL-6R", "T3 sequence (looked up)": "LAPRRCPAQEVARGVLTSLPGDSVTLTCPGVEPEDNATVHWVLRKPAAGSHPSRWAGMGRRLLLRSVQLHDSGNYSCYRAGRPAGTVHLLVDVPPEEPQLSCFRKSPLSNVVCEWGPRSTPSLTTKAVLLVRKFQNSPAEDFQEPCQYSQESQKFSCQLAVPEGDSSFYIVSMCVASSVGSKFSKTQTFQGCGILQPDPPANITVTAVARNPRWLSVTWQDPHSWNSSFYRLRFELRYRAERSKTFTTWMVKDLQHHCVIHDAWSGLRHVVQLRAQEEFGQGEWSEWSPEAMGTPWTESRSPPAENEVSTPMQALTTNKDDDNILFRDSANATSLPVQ", "test": "Gyrolab xP complex assay in C57BL/6J mouse plasma: antibody 0.15 µg/mL and human soluble IL-6R 0.15 µg/mL (final), capture by biotinylated anti-human IL-6R antibody, detection with AF647-anti-delta GK; signal as % of H54//IC17", "experimental": "First, to bind the albumin-binding portion to albumin in the plasma, the anti-human IL-6R antibodies (albumin switch molecules) indicated in Example 2 were diluted to 0.6 micro g/mL using C57BL/6J mouse plasma, and then incubated at room temperature for one hour. Next, for binding of the anti-human IL-6R antibody to the target antigen, one equivalent of human soluble IL-6R diluted to 0.6 micro g/mL in mouse plasma was added to the antibody solutions, and then the solutions were incubated at room temperature for one hour.\nTo detect the antigen-antibody complexes, first, the anti-delta GK antibody (AF647-anti-delta GK) was labeled using an Alexa flour 647 labeling kit (A20186, Thermo Fisher Scientific) according to the attached protocols. […]\nMeasurement of antigen-antibody complexes was performed using Gyrolab xP. […] The amount of the captured complex was detected by the fluorescence signal of AF647 (Detect PMT 25%). The fluorescence signal of AF647 was analyzed by Gyro Evaluator (version 3.6.2.30, Gyros Protein Technologies)."}, "[2]": {"molecular_target": "T4, IL6R on IL6R-CHO cells (CHO cells forced to express IL6R) (UniProt P08887 20-468, limits assumed)", "T4 construct": "whole, on cells; also called membrane-type IL6R; IL6R on the cell membrane", "T4 sequence (looked up)": "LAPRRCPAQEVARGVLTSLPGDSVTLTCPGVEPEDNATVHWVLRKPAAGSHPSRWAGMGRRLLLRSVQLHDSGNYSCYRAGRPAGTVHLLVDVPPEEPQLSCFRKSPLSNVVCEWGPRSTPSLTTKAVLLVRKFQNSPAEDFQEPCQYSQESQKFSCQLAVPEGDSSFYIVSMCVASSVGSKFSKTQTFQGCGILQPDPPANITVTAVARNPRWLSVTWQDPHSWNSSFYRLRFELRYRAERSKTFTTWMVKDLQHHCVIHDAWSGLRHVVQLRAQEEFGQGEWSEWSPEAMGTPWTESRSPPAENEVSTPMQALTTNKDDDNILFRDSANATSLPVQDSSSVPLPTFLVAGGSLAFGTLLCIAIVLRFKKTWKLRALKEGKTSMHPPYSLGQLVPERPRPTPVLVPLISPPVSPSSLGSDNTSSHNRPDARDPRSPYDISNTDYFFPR", "test": "flow cytometry on IL6R-CHO cells, 4 degrees C 60 min, detection with Alexa Fluor 647 anti-dGK antibody; (a) MSA-free medium, (b) medium with 50 mg/mL MSA, (c) mouse plasma [a), (b), (c]", "experimental": "Binding ability of albumin switch molecules against the membrane-type antigens were verified. Specifically, the antibodies (10 micro g/mL) indicated below were incubated with IL6R-CHO cells (Chiome Bioscience, 2×10⁵ cells/well) in mouse serum albumin (MSA)-free CHO-S-SFM II medium (Thermo Fisher Scientific), 50 mg/mL Recombinant MSA (Albumin Bioscience)-containing medium, or mouse plasma (6-week-old male C57BL/6J mouse) at 4 degrees C. for 60 minutes. Antibodies used for the reaction were IC17, H54//IC17, and ABD094(H/L)-H54//IC17. After the reaction, the cells were washed three times with PBS(−). Addition of Alexa Fluor 647-labeled anti-dGK antibody (10 micro g/mL) was followed by incubation at 4 degrees C. for 30 minutes. Lastly, the cells were suspended in PBS(−) and analyzed by FACSCantoII (BD)."}}}
{"binder": "IC17 (antibody, human IgG1, kappa, V domains shown, also called Anti-KLH antibody) VH: QVQLQQSGPQLVRPGASVKISCKASGYSFTSYWMHWVNQRPGQGLEWIGMIDPSYSETRLNQKFKDKATLTVDKSSSTAYMQLSSPTSEDSAVYYCALYGNYFDYWGQGTTLTVSS VL: DIQMTQSSSSFSVSLGDRVTITCKASEDIYNRLAWYQQKPGNAPRLLISGATSLETGVPSRFSGSGSGKDYTLSITSLQTEDVATYYCQQYWSTPYTFGGGTKLEVKR", "values": [{"measurement": "binding result", "setting": "Mouse MOG (R&D system)", "value": "no binding"}, {"measurement": "binding result", "setting": "[1]", "value": "no binding (tested: 10 µg/mL)"}, {"measurement": "binding result", "setting": "human soluble IL-6R", "value": "no binding (tested: 0.15 µg/mL)"}, {"measurement": "binding result", "setting": "[2]", "value": "no binding (tested: 10 µg/mL)"}]}
